Experimental findings from patent US20200362034A1 (KINDRED BIOSCIENCES, published 2020) are described below.

Assay [1] deals with human glucagon ligand peptide-1 receptor (GLP1R) (human, UniProt P43220 24-463). The assay is described as follows: cell-based or functional assay.
The target of assay [2] is FeGLP1R-N-huFc_PolyHis (feline, biotinylated (sites not given) in the Octet assay). The assay is described as follows: biolayer interferometry (Octet); biotinylated FeGLP1R-N-huFc_PolyHis on streptavidin tips; 1:1 fit. Here is the method: Briefly, FeGLP1R-N-huFc_PolyHis was biotinylated, the free unreacted biotin was removed, and the biotinylated protein was captured to streptavidin sensor tips. […] Dissociation was monitored for 600 seconds. A buffer only blank curve was subtracted to correct for any drift. […] The buffer for dilutions and all binding steps was: 20 mM phosphate, 150 mM NaCl, pH 7.2.
Sequence of FeGLP1R-N-huFc_PolyHis (feline, biotinylated (sites not given) in the Octet assay) (chain, as listed by the source): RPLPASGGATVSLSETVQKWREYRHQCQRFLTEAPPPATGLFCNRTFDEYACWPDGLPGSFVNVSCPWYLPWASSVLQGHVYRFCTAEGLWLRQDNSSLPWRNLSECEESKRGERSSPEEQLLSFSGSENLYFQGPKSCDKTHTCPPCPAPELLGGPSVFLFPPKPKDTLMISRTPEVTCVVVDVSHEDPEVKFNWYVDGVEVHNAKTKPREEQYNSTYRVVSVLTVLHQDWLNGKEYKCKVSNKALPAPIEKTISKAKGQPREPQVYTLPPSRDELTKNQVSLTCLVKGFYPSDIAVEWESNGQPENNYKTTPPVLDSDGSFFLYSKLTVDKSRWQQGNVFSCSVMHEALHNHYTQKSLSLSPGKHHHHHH
On the technique in general: BLI is a label-free optical method that tracks binding on a fibre tip over time.

B1: GLP1-G8/GLP1-2G_III_VARfeIgG2 (Fc fusion)
chain: HGEGTFTSDVSSYLEGQAAKEFIAWLVKGGGGSGGGGSGGGGSGGGGSPKTASTIESKTGECPKCPVPEIPGAPSVFIFPPKPKDTLSISRTPEVTCLVVDLGPDDSNVQITWFVDNTEMHTAKTRPREEQFNSTYRVVSVLPILHQDWLKGKEFKCKVNSKSLPSAMERTISKAKGQPHEPQVYVLPPTQEELSENKVSVTCLIKGFHPPDIAVEWEITGQPEPENNYQTTPPQLDSDGTYFLYSRLSVDRSHWQRGNTYTCSVSHEALHSHHTQKSLTQSPGKGGGGSGGGGHAEGTFTSDVSSYLEGQAAKEFIAWLVKGGG
As for B1, the “EC 50 (nM), cAMP Hunter bioassay on CHO-K1 cells overexpressing human GLP1R” value in assay [1] was found to be 0.0175 nM.

B2: GLP1-G8_I_VARfeIgG2 (Fc fusion)
chain: HGEGTFTSDVSSYLEGQAAKEFIAWLVKGGGGSGGGGSGGGGSGGGGSPKTASTIESKTGECPKCPVPEIPGAPSVFIFPPKPKDTLSISRTPEVTCLVVDLGPDDSNVQITWFVDNTEMHTAKTRPREEQFNSTYRVVSVLPILHQDWLKGKEFKCKVNSKSLPSAMERTISKAKGQPHEPQVYVLPPTQEELSENKVSVTCLIKGFHPPDIAVEWEITGQPEPENNYQTTPPQLDSDGTYFLYSRLSVDRSHWQRGNTYTCSVSHEALHSHHTQKSLTQSPGK
notes: Formula I contiguous polypeptide made in CHO cells; The Fc chains pair through hinge disulfides; also called GLP1 MB variant; GLP1-B
On to B2, for which the Kd (as a rule, the equilibrium constant for the complex coming apart) in assay [2] fell in the range of 8 to 16 nM. Besides, the “EC 50 (nM), cAMP Hunter bioassay on CHO-K1 cells overexpressing human GLP1R” value in assay [1] amounted to 0.0281 nM.
